# Conditions: phosphorylation at S2808
Substance,other,structure_or_conformation
RyR2 (ryanodine receptor type 2): S2808D phosphomimetic,increases,
RyR2 (ryanodine receptor type 2): S2808D phosphomimetic (expressing cells also treated with H2O2; irreversible oxidative modifications retained),,"changes, RMSD normalized projection = 0.11 (subprimed state)"

# — publication PMC11402997
